Reference: the domain aggregation screens of Martell et al. (2025)

Assay: soluble fraction after stress (log2 fold change); higher = more stays soluble; pooled small domains, quantitative proteomics
Details: stress: 50 degC
Procedure, shortened: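 Pooled custom libraries of small protein domains were measured in a high-throughput format, with quantitative proteomics as the read-out. Each library was stressed at 50°C. Aggregation propensity is given as the base-two logarithm of the fold change in how much of each protein stays soluble after the stress. Higher values mean a larger share of the protein remains in solution.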

Sequence | soluble fraction (log2)
HMYLHSEFSPVTGQELHMKYDDSSTEEDPVMLVEGKDIQGNDFVKKIHLNDVDPENATPAEMTALRVHL | -0.541
HMTLNTQLFTWKKGVRVGEDDQGNIYYRTKDDKRRWVIFTGETEATKVSPDWHGWLHRTWATPPNK | -2.39
HMRSLATFEEEKIALRFWNYLQSEGIKSTLEEEGPRDWVIWVIDEEKIPSATQSLEKFNLNPDDPAFSN | -0.438
HMNSRAERKEAAKEAIRNLLREGMTFEELTGPWLEKRFAEEPFNRGARSWQMLISEIKEEPEFQHL | 0.00166
HMTQGRVTGDGVNVRSQPNTDSAILTRVSTGKVVELISLKDNWYNVVVNGTKGYIRADYVSPYDG | -0.0101
HMDSIQMKNNSILYYGNTAGYLDAKRNTAVVDPMFRTDEMESYLSEQKGLSVEWASGTYDRLT | 0.149
HMTSHPTHTILDGKVHVFMRDGSPFWWGGFHFKGKYLRTSTKQKNLDSAKTIAQQWYFQKQTEIASGE | -2.67
HMRIWTISDLYKNVEDKKVSLAVFSEDNDSNKVNVLDINGEEHSVNLLKADLPTLVDLFRKNDVRFAVRSN | 0.12
HMAGDVVVEVVGKVRDPQVVTLPKGSRVQDALEAAGGVKPGVNTTDQNLARLLVDGEQIRIGLSS | 0.0918
HMNGDWISARQEYYIRGLWDLASRAKDEASLQAMLQRIAGVTQIEWISKEKATKVILALRDIAKK | -1.68
HMLLSTHVVVAKEDVQIGTRLQPAMLQVVDWPSASPLKNPLTSIEQATDRVVNMPLVKGEPISMSKLAAKG | 0.00241
HMLALVREQIERNVSNPTDEDIRKIRHDVMEVITRAGADAATVDIAIEIDSQKNILRAIATGATEL | -0.0114
HMDVSLVEQTQRDILEYISKNNSNAQLPKEQEFVGLLGVSRVVVREALSRLRALGIIETKRKKGTVVVVPE | -0.165
HMSKQIEVPDVTDMTVSDAIDVLQDKGFVVSDEQKEVASSEIEEGRVVRTSPAVGSKRKDGTVVTLYVSI | 0.045
HMDTRKKLEQIFKLFDKTGTGMVNIDEFKSVLKLFMEEIDEKFGNYFIAYFDENGDGKIEFEEFADVVL | -0.0635
HMSDPHEELMSRIARDLSIPLTRVVAEMNTIISKEFGGHIRPEGAVVILAKRSGVEFSDLLPALRENILK | -1.05
HMAEPTLNERLREALSDPAKLKIAKAIKAKYPIITARDIDTFLNMHEKDIENGADPMDEFEEFFHANY | 0.127
HMYSNDEIVNYLKNYIFDNFNLNELSDEELEEKIAELVQQQFAGQLLSLDEKVKLVNQVYSSIR | 0.0129
HMPVSRMRARHEALARGVMGIHAGGFSAVYGYRKVWHGLIGKGWDPGEVGRDQVMNIMRGLGMQGVRR | 0.266
HMGKTTQEIEERSSTSTLTLTQTPKEIISVQGKKSDQSFFTNIQYTQNGKVIVPKQTGIYDTIKVVFTVSL | -1.2
HMNKEVDLPNFVGMTKENAQAQADKIKIKLEFEEEYSSDVEEGKIISQNPEYKENYKIKEKSTVSLKI | 0.118
HMPDLSEDEEKIVSLLRDNNDLNVNIIVMRTQLPSATVTSSLFSLELKGVVRMYAGGMYHLM | -1.7
HMKINVQETEVYRYLLERADRLYSMILGEERENLMERTRFFEKEVAKASLPHLPKLYDEFSIYLDRLERG | -0.138
HMKELTELIEKIKLRRLELGLSYQELSDLTGINKSTLQRYETGFIKKVPINQVQIIAKALNVTPGYLMG | -0.28
HMDPLASLTPREREVLSLMAQGLSNLAVAERLVVSAGAVEKHISSIFTKLDLAPSEHEHRRVLAVLRYVAG | -3.2
HMTGMEKFLTIPSIRESTAAFEREYLIHYLDENAWQVSKTAAAIGIERTTLYKKMKQLGIVPIEE | -2.07
HMIHFDHPERSILDTMLYEKKGMTAQSARNRLAAYQFQGEDVFKPVSVLSGGELSRITLAIKNAMADK | -0.186
HMMKLSKRQEQIIAVVKEHQPVSGERISDILAVSRATLRSDLSFLTLSGILKASPKVGYTYES | -1.12

Sequence | soluble fraction (log2)
HMGPELGENEKLIFDIIKKESKMELGILKAQVDLSNKKWDKALKGLATHGLTKVNKTDDGLFIELI | -0.095
HMNLTEIGQRIRDRREELGLSQDRLAKLGGLPRVTINQLETGSIGDLGVSKLLNLLDLLGLTLDA | -0.108
HMSNFGERLRALRQDRQMTLQQASKVTGVAQSTLSKMENNQLSPTFNLMQKLAIGLGIDMPQLFAPVK | -0.108
HMVNPDAPAPLYIVNGKETDKNIALAIKPEDVQDVRIIKNTVALQVYGEKGKNGVVIINTKPGV | 0.206
HMTNISDYILEEYYKNVYPNDLNTKRIVIPNKYEEYAGKYTYITIARMVTYEHDAKKALKVLHQQAT | -0.287
HMQKVPDAFKAEQVQTLITRLGVSRAELARTLDVSLSTVNKWASGAVEPKGSALVLLKVLWMHGFKAL | -2.14
HMVQARDQNIEEGRQLVLRELDRLDLVNESLTDVAADMNMKSVEDMYAAIGAGDLRVGQVVHAVLKRAD | 0.00761
HMRTTYKTRLETLLAGPMSAGDRRFASSLLDFYNRKNRLTPGRARFVAQLEDRYSAEALAARQG | -0.961
HMRIDVWLAENGFAPSRQKAQDLIAAGRVFQTDPSGRRQKVSKASAAVDPALSPKIEVIPDPE | 0.161
HMAGTPAIVKWFNPTKGFGFVTPKEAGSDALLHASVLAKRGKRWLQEGTLVEVLIEEGPKGLVVSELLTIE | -0.748
HMETMSGTVKWFNTQKGYGFITGDDGAEYFAHQTQIKMDGFRTLDAGDIVEFDVRSEEKGLAAVNIVP | -0.0597
HMKRIFEKKVVTESLNGLRLDKAAATLFADFSRNELGQWIKDEALLVNGKAKKVKEKVSEGDVLALDVELI | 0.0881
HMNDIDRFIEALIEQDTLPGTNSRINEDVISEMKMMTSVEDIKAYAIATVGLTGGQVNNALINSGL | -0.0823
HMSSSMDAIAEIIRSIPRGDHLTAPEVYELAKQRGLKLSLSTVYRTLNKLKVVGDVITVSGDRGLRYESV | -0.181
HMFMMVAGHLQIKNEKYYMVLELRTEQGERKTKWIGTGLAVKGNKRRAEAMLEETRTKYLSPV | -1.95
HMAKVSVNIILKDGVDQTTFVNDVTSNTEVDLKNQLISLPQMVVLSVEEDYINTLKSHSSISILELDE | -0.00499
HMAPLQDENGDLTFSYNGKTYTVNVNSEEDRNSFAEDFNKENGKKFSWFKERAGLQHYVFYDTEM | -0.19
HMYEINEIIRERRLKKGLTQAQVAKYLGVSAPAVNKWEKGTTYPDLVLLPALARLLDTDLTTLLSF | -1.38
HMAETLRLVGATNLNTLARARHPDDLAARNEFRRAIAQANPALFAGKSKVGSVSLPAGTVLALPPEV | 0.184
HMLRIIDYNRVVKDLNGLTPEQLLEKLAESFTVEDKGTEEYRPTELHNFSMYLGGHWYSLTAKPGTYDDND | -0.937
HMGRSTQVPGVEKMTYSQAVQLLHDHGFRVDIRDSLYRDDIKPGHVIEQFPKAKSIVKPGRKIFLYINAV | -1.32
HMDKLEKRILDYLLQKSAIDGSTILKISHREMAMDLGTAREVVTRILKKLETGGFVRQGENYLEILK | -0.145
HMSYQFKIKNNAAVEVTVSEKNNLLGSTYGDKATVAAGMEKNVTFYTDKPDVVVDTNGNFTITVHDKEIII | 0.132
HMVQVHEWTNKAGRTIKAKFVRGDAQSVTIFLGGRNFVLKIADLSEESQALARKLSAPPPPP | -0.607
HMQSVSANSVQKQLADIIDGEDKTHPLSDRELTEKLVAQGVQISRRTVAKYREAMGIPGASGRKQ | 0.072
HMTGENWAERSRQLAAAGLLVLGKEAQEKIASLPNLIPLIEAAAASDTRLLNAQTIDELLSFVPTEETI | -0.05
HMQDELSSSVIEEAVVVLLLRAANIDGKKDEQEIEAIKRLIIQQFNYDEEKADILITSASEK | -0.218
